Results reported in patent US20160324751A1, “METHOD OF PREPARING RECOMBINANT HUMAN TYROSINASE” (Conopco, Inc., d/b/a UNILEVER, priority 2012, published 2016).

Columns and labels:
[1] = biological target: T1, human tyrosinase prepared using truncated gene (TMRL) (Homo sapiens, UniProt P14679); test: In vitro tyrosine to melanin assay; format: biochemical; settings: TMRL (60 μg) + 50 mM Arbutin
T1 construct: The truncated version is defined as a gene whose corresponding protein extends from the N-terminus to the amino acid 472 or lower; made in house; host or cells: HIGHFIVE (BTI-TN-5B1-4) insect cells, baculovirus (PFASTBAC)
T1 sequence (P14679 19-472 limits assumed): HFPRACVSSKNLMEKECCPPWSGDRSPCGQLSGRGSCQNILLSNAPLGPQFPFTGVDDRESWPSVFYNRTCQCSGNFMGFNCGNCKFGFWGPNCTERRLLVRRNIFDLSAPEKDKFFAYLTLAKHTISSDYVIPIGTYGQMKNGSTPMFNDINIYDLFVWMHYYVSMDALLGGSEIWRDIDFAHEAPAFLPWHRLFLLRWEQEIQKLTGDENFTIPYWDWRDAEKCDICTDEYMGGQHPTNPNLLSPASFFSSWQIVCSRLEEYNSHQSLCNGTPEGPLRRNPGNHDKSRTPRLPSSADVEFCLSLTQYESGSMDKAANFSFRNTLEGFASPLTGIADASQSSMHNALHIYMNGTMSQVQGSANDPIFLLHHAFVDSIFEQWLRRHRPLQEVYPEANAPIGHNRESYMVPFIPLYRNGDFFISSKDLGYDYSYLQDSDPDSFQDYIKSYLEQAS
Text: At the completion of the reaction, samples were photographed and data analyzed further in the same manner described under the DOPA+MBTH section.

[2] = test system: insect cells expressing FL rHuTyrase; test: Visual examination of cell pellet prior to cell lysis; format: cell-based; settings: prior to cell lysis by sonication; control uninfected cells pale
Text: FIG. 2: Visual examination (prior to cell lysis by sonication) of the samples of cell pellet obtained in the case of insect cells expressing Full (FL) rHuTyrase (Example 1) as compared to the control uninfected cells (Example A).

[3] = test system: human tyrosinase; test: DOPA+MBTH solution phase tyrosinase enzymatic assay; format: biochemical; settings: gray scale intensity difference to Example D, relative to HML (Example B); 0 = transparent, close to 1 = activity comparable to HML
Procedure: Standard western blot procedure was used to examine the extent of tyrosinase protein expression as well as determine optimal time point to harvest the cells. For scale up work, it was decided to use the insect cell line known as BTI-TN-5B1-4, sold under the tradename HIGHFIVE™ further. 100 ml scale growth of “infected” HIGHFIVE™ cells were carried out and both the spent media as well as the cell pellets were collected. The latter was lyzed by regular sonication method and the activity of the tyrosinase enzyme in various samples were tested using the typical DOPA oxidation and DOPA+MBTH coupling assays.
DOPA oxidation activity was examined by a slightly modified version of the procedure earlier reported by Harris & Winder [Eur. J. Biochem. (1991) 198: 317-326], excluding Perchloric acid and Dimethylformamide but capturing a picture on reaction progress. […]
Example E: Growth media supernatant in which above cells were grown Reaction samples were photographed and converted into gray scale intensity (GSI) by computer software digitization. Numerical differences (di) were calculated between GSI of any sample and that of reference control background sample (Example D). dmax was the maximal difference, that between HML (positive reference control, Example B) and the reference control background sample (Example D).

[4] = test system: human tyrosinase; test: DOPA (2 mM) oxidation assay in absence of MBTH, OD450 nm; format: biochemical; settings: 15 μg protein equivalent, OD450 nm after 90 min converted into ratio
Procedure: DOPA oxidation activity was examined by a slightly modified version of the procedure earlier reported by Harris & Winder [Eur. J. Biochem. (1991) 198: 317-326], excluding Perchloric acid and Dimethylformamide but capturing a picture on reaction progress. Separately, in vitro melanin formation assay was carried out for 7 hrs. at 37° C., using a substrate mix (of 0.5 mM L-Tyrosine+15 μM L-DOPA) in 50 mM phosphate buffer (pH 6.8) and using indicated amounts of protein. This assay covers both tyrosine hydroxylation and DOPA oxidation activities together in the same run. Human melanocytic lysate served as the reference positive control and absence of any protein served as the no enzyme negative control (uncatalyzed background reaction) for these reactions. Assay volumes of 0.1 ml were adequate, indicating scalability for enhanced high throughput screening purposes.
When the activity of 15 μg protein equivalent recombinant human tyrosinase samples were tested in DOPA (2 mM) assay (in absence of MBTH), OD450 nm values reached after 90 min. (indication of extent of oxidation) were converted into a ratio form and are tabulated below: […]

OC[C@H]1O[C@@H](Oc2ccc(O)cc2)[C@H](O)[C@@H](O)[C@@H]1O [Arbutin]
Scale ratio di/dmax (tyrosinase activity of TMRL with inhibitor) [1]: 0.00

B1: Example 1: Full length recombinant human tyrosinase, synthetic gene codon optimized for baculovirus expression in insect cells (protein, UniProt P14679 1-529, looked up)
chain: MLLAVLYCLLWSFQTSAGHFPRACVSSKNLMEKECCPPWSGDRSPCGQLSGRGSCQNILLSNAPLGPQFPFTGVDDRESWPSVFYNRTCQCSGNFMGFNCGNCKFGFWGPNCTERRLLVRRNIFDLSAPEKDKFFAYLTLAKHTISSDYVIPIGTYGQMKNGSTPMFNDINIYDLFVWMHYYVSMDALLGGSEIWRDIDFAHEAPAFLPWHRLFLLRWEQEIQKLTGDENFTIPYWDWRDAEKCDICTDEYMGGQHPTNPNLLSPASFFSSWQIVCSRLEEYNSHQSLCNGTPEGPLRRNPGNHDKSRTPRLPSSADVEFCLSLTQYESGSMDKAANFSFRNTLEGFASPLTGIADASQSSMHNALHIYMNGTMSQVQGSANDPIFLLHHAFVDSIFEQWLRRHRPLQEVYPEANAPIGHNRESYMVPFIPLYRNGDFFISSKDLGYDYSYLQDSDPDSFQDYIKSYLEQASRIWSWLLGAAMVGAVLTALLAGLVSLLCRHKRKQLPEEKQPLLMEKEDYHSLYQSHL
modifications: full-length recombinant, baculovirus-expressed
notes: Full length recombinant human tyrosinase, synthetic gene codon optimized for baculovirus expression in insect cells
Colour of cell pellet (melanin like pigment within the cells) [2]: black

B2: Example 3: Sonication lysate supernatant of HIGHFIVE cells expressing FL tyrosinase (protein, UniProt P14679 1-529, looked up)
chain: MLLAVLYCLLWSFQTSAGHFPRACVSSKNLMEKECCPPWSGDRSPCGQLSGRGSCQNILLSNAPLGPQFPFTGVDDRESWPSVFYNRTCQCSGNFMGFNCGNCKFGFWGPNCTERRLLVRRNIFDLSAPEKDKFFAYLTLAKHTISSDYVIPIGTYGQMKNGSTPMFNDINIYDLFVWMHYYVSMDALLGGSEIWRDIDFAHEAPAFLPWHRLFLLRWEQEIQKLTGDENFTIPYWDWRDAEKCDICTDEYMGGQHPTNPNLLSPASFFSSWQIVCSRLEEYNSHQSLCNGTPEGPLRRNPGNHDKSRTPRLPSSADVEFCLSLTQYESGSMDKAANFSFRNTLEGFASPLTGIADASQSSMHNALHIYMNGTMSQVQGSANDPIFLLHHAFVDSIFEQWLRRHRPLQEVYPEANAPIGHNRESYMVPFIPLYRNGDFFISSKDLGYDYSYLQDSDPDSFQDYIKSYLEQASRIWSWLLGAAMVGAVLTALLAGLVSLLCRHKRKQLPEEKQPLLMEKEDYHSLYQSHL
modifications: full-length insect cell lysate
Scale ratio di/dmax (DOPA + MBTH Reaction) [3]: 0.85

B3: Example 6: FL lysate supernatant, 15 μg protein equivalent (protein, UniProt P14679 1-529, looked up)
chain: MLLAVLYCLLWSFQTSAGHFPRACVSSKNLMEKECCPPWSGDRSPCGQLSGRGSCQNILLSNAPLGPQFPFTGVDDRESWPSVFYNRTCQCSGNFMGFNCGNCKFGFWGPNCTERRLLVRRNIFDLSAPEKDKFFAYLTLAKHTISSDYVIPIGTYGQMKNGSTPMFNDINIYDLFVWMHYYVSMDALLGGSEIWRDIDFAHEAPAFLPWHRLFLLRWEQEIQKLTGDENFTIPYWDWRDAEKCDICTDEYMGGQHPTNPNLLSPASFFSSWQIVCSRLEEYNSHQSLCNGTPEGPLRRNPGNHDKSRTPRLPSSADVEFCLSLTQYESGSMDKAANFSFRNTLEGFASPLTGIADASQSSMHNALHIYMNGTMSQVQGSANDPIFLLHHAFVDSIFEQWLRRHRPLQEVYPEANAPIGHNRESYMVPFIPLYRNGDFFISSKDLGYDYSYLQDSDPDSFQDYIKSYLEQASRIWSWLLGAAMVGAVLTALLAGLVSLLCRHKRKQLPEEKQPLLMEKEDYHSLYQSHL
modifications: full-length insect cell lysate
notes: FL lysate supernatant, 15 μg protein equivalent
Scale ratio di/dmax (Extent of DOPA oxidation) [4]: 0.90

B4: Example G: Commercially sourced E. coli (bacteria) expressed recombinant human tyrosinase (protein, UniProt P14679 19-529, looked up)
Tyrosinase: HFPRACVSSKNLMEKECCPPWSGDRSPCGQLSGRGSCQNILLSNAPLGPQFPFTGVDDRESWPSVFYNRTCQCSGNFMGFNCGNCKFGFWGPNCTERRLLVRRNIFDLSAPEKDKFFAYLTLAKHTISSDYVIPIGTYGQMKNGSTPMFNDINIYDLFVWMHYYVSMDALLGGSEIWRDIDFAHEAPAFLPWHRLFLLRWEQEIQKLTGDENFTIPYWDWRDAEKCDICTDEYMGGQHPTNPNLLSPASFFSSWQIVCSRLEEYNSHQSLCNGTPEGPLRRNPGNHDKSRTPRLPSSADVEFCLSLTQYESGSMDKAANFSFRNTLEGFASPLTGIADASQSSMHNALHIYMNGTMSQVQGSANDPIFLLHHAFVDSIFEQWLRRHRPLQEVYPEANAPIGHNRESYMVPFIPLYRNGDFFISSKDLGYDYSYLQDSDPDSFQDYIKSYLEQASRIWSWLLGAAMVGAVLTALLAGLVSLLCRHKRKQLPEEKQPLLMEKEDYHSLYQSHL
modifications: E. coli expressed
notes: Commercially sourced E. coli (bacteria) expressed recombinant human tyrosinase
Scale ratio di/dmax (Extent of DOPA oxidation) [4]: 0.04
